Some targets named below: MAGI2_2, Q86UL8; SCRIB_1, Q14160; MAGI3_2, Q5TCQ9; Inadl_6, Q8NI35; GOPC, Q9HD26; GRID2IP_2, A4D2P6; TJP2_1, Q9UDY2; IL16_4, Q14005; MAGI2_4, Q86UL8; HTRA1, Q92743; MAGI2_6, Q86UL8.
What all share (test): holdup assay
Holding throughout (parameters): key: below the threshold = too weak to quantify, mostly under pKd 3.1 to 4
Common to all, as to details: plain residues with an end cap or a label only (N-terminal biotin on a linker: ttds)

Another experiment concerns the target T1, GRIP1_5, Q9Y3R0.
T1 sequence (Q9Y3R0 568-668, limits assumed, looked up): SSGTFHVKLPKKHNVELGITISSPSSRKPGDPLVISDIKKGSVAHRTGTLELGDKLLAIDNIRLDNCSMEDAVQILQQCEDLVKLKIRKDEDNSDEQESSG

Another experiment deals with T2, RHPN1, Q8TCX5.
T2 sequence (Q8TCX5 508-602, limits assumed, looked up): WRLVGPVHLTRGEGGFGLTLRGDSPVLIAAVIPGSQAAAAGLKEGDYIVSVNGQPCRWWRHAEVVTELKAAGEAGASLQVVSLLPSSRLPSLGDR

In the next experiment the target is T3, LIN7C, Q9NUP9.
T3 sequence (Q9NUP9 88-185, limits assumed, looked up): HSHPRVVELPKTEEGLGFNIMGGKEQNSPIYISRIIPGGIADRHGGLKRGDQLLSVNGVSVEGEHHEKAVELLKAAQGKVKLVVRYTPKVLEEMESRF

The next experiment deals with T4, ARHGEF11, O15085.
T4 sequence (O15085 42-136, limits assumed, looked up): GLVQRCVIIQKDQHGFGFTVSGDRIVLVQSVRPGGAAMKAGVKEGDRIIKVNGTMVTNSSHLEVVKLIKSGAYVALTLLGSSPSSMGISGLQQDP

Another experiment addresses T5, TIAM2, Q8IVF5.
T5 sequence (Q8IVF5 885-986, limits assumed, looked up): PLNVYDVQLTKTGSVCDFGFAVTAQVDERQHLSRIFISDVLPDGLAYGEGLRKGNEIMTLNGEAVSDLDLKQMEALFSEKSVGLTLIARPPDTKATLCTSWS

The next experiment addresses T6, DLG3_2, Q92796.
T6 sequence (Q92796 221-321, limits assumed, looked up): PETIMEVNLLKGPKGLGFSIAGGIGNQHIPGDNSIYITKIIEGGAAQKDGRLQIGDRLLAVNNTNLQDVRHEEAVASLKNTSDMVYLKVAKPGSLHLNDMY

Another experiment has as its target T7, NHERF3_4, Q5T2W1.
T7 sequence (Q5T2W1 373-468, limits assumed, looked up): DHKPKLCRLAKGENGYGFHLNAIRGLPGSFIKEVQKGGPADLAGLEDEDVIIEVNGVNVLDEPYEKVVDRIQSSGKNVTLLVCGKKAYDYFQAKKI

The target of a further experiment is T8, LIN7A, O14910.
T8 sequence (O14910 103-200, limits assumed, looked up): T3 sequence (Q9NUP9 88-185, limits assumed, looked up) with E13D, I20V, I40V, D42E, Q77K, G78D, K79S, S96A

In a further experiment the target is T9, LIN7B, Q9HAP6.
T9 sequence (Q9HAP6 88-185, limits assumed, looked up): T3 sequence (Q9NUP9 88-185, limits assumed, looked up) with S2A, E13D, I35V, I40V, H65Q, K79S, K89R, S96A

In a further experiment the target is T10, SNTG2, Q9NY99.
T10 sequence (Q9NY99 68-166, limits assumed, looked up): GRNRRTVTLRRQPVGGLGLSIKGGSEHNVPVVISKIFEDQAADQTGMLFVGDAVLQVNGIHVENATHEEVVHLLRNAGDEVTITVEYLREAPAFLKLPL

For another experiment, the target named is T11, PTPN13_1, Q12923.
T11 sequence (Q12923 1088-1188, limits assumed, looked up): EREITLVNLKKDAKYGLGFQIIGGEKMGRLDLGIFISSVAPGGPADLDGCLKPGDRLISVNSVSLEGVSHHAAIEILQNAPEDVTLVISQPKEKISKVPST

The target of the next experiment is T12, CARD11, Q9BXL7.
T12 sequence (Q9BXL7 662-765, limits assumed, looked up): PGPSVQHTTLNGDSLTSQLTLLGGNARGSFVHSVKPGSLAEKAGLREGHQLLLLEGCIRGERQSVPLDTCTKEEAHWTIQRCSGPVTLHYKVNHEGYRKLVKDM

The target in another experiment is T13, PARD3B_1, Q8TEW8.
T13 sequence (Q8TEW8 196-299, limits assumed, looked up): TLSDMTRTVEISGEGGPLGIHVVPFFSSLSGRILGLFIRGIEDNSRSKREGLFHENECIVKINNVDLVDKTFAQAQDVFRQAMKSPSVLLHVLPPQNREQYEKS

The text below walks through data of PMC9482650, “Quantitative fragmentomics allow affinity mapping of interactomes” (Nature Communications, 2022).

Numbering of substitutions follows the chain as printed.

GRID2IP_2, A4D2P6, sequence (A4D2P6 272-370): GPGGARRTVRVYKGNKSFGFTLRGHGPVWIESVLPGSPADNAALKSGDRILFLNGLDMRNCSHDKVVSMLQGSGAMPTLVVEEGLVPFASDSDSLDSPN
SCRIB_1, Q14160, sequence (Q14160 718-814): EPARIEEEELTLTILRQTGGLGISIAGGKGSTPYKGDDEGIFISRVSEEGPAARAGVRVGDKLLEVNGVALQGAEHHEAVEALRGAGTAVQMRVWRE
Inadl_6, Q8NI35, sequence (Q8NI35 1058-1167): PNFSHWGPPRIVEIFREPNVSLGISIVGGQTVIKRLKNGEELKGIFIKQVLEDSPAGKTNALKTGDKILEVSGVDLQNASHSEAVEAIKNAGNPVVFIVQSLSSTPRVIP
MAGI2_2, Q86UL8, sequence (Q86UL8 410-522): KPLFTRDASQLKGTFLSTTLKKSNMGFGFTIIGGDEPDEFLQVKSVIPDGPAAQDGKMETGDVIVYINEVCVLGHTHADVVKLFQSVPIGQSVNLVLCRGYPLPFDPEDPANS
TJP2_1, Q9UDY2, sequence (Q9UDY2 24-128): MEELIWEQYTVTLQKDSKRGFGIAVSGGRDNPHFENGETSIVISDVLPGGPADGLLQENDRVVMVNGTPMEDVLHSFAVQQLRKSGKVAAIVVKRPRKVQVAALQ
MAGI2_6, Q86UL8, sequence (Q86UL8 1141-1229): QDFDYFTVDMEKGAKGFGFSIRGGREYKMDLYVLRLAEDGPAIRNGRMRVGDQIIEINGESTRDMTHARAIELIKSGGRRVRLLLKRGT
IL16_4, Q14005, sequence (Q14005 1229-1329): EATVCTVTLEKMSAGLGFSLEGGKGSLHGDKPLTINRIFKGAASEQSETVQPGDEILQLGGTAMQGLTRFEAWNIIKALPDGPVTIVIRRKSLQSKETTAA
HTRA1, Q92743, sequence (Q92743 360-477): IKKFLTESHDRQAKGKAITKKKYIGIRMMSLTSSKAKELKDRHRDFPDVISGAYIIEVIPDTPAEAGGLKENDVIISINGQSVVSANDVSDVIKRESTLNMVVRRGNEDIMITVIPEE
MAGI3_2, Q5TCQ9, sequence (Q5TCQ9 398-503): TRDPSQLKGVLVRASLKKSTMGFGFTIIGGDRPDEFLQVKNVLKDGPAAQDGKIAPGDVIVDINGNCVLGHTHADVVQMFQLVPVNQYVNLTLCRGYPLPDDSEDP
MAGI2_4, Q86UL8, sequence (Q86UL8 772-865): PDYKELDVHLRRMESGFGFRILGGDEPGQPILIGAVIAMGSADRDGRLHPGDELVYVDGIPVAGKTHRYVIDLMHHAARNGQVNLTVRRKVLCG

Usually pKd stands for the negative decadic logarithm of the Kd, by convention in mol/L. Consider STLTIFETAL [ABCC4, O15439], for which the pKd entry is “below the threshold” with GRIP1_5, Q9Y3R0; 4.87 with RHPN1, Q8TCX5; 4.13 with MAGI2_2, Q86UL8; 4.68 in the experiment with LIN7C, Q9NUP9; 4.93 with ARHGEF11, O15085; “below the threshold” in the experiment with TIAM2, Q8IVF5. Also, the pKd in the experiment with SCRIB_1, Q14160 is 6.07; with MAGI3_2, Q5TCQ9, 4; with DLG3_2, Q92796, 4.35; with NHERF3_4, Q5T2W1 it was 4.78; with Inadl_6, Q8NI35 it was 4.89; with LIN7A, O14910, 3.66. Also, the pKd with LIN7B, Q9HAP6 was 4.44; in the experiment with SNTG2, Q9NY99, 4.97; with PTPN13_1, Q12923, “below the threshold”; in the experiment with GOPC, Q9HD26, 4.52; in the experiment with GRID2IP_2, A4D2P6, 4.36; with TJP2_1, Q9UDY2, “below the threshold”. Moreover, the pKd result was “below the threshold” with IL16_4, Q14005; 3.54 with MAGI2_4, Q86UL8; “below the threshold” in the experiment with CARD11, Q9BXL7; 3.94 in the experiment with PARD3B_1, Q8TEW8; “below the threshold” with HTRA1, Q92743; 4.53 with MAGI2_6, Q86UL8.
